In patent publication US10167314 (NORTHWESTERN UNIVERSITY, dated 2019):
Ends that are not written are not given here.

Target: N-methyl-D-aspartate (NMDA) receptor (rat)
Assay: cell-based or functional assay

Binder: TPPT-NH2 [GLYX-13 (L-threonyl-L-prolyl-L-prolyl-L-threonine amide)]
- intrinsic activity relative to D-serine, pharmacologically isolated NMDA receptor current in the hippocampal slice assay: 23%
